Test results reported in publication doi:10.1101/2020.01.12.903617, “The peptide sensor motif stabilizes the outward-facing conformation of TmrAB” (bioRxiv, 2020).
No end group written: not given here. fluorescein = fluorescein label attached to the Cys side chain

Legend:
Experiment in all cases: fluorescence polarisation; 1.7 uM TmrAB with 50 nM RRY(C^Fluorescein)KSTEL in SEC buffer (20 mM HEPES, 150 mM NaCl, pH 7, 0.05% ß-DDM), 15 minutes on ice, in the absence or presence of 5 mM ATP and 10 mM MgCl2; read at 25°C (the results say 4°C); signal normalized to WT without ATP
Settings in all cases: both partners purified
[1] = target: T1, TmrAB R132A^TmrA (Thermus thermophilus, UniProt Q72J05 1-600; Q72J04 1-578, R132A)
T1 construct: TmrA, Thermus thermophilus, the chain of TmrAB with the canonical Walker B motif; TmrB, Thermus thermophilus, the chain of TmrAB with the non-canonical Walker B motif
T1 sequence 1: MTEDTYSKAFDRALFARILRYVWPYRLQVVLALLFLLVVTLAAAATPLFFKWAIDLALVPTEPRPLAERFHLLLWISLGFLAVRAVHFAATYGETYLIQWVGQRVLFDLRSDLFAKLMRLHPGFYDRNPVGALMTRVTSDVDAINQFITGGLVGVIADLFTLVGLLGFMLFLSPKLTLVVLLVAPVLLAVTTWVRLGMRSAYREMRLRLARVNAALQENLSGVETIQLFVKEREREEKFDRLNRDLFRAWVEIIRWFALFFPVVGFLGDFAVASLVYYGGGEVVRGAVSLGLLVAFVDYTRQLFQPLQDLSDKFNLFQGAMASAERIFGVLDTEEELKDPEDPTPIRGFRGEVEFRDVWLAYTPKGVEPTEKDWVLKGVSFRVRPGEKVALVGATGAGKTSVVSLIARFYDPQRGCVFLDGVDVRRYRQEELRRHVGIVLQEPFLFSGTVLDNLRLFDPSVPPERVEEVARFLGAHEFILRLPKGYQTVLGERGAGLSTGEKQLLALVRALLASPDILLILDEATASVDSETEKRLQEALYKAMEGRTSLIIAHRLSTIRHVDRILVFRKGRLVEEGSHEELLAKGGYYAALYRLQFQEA
T1 sequence 2: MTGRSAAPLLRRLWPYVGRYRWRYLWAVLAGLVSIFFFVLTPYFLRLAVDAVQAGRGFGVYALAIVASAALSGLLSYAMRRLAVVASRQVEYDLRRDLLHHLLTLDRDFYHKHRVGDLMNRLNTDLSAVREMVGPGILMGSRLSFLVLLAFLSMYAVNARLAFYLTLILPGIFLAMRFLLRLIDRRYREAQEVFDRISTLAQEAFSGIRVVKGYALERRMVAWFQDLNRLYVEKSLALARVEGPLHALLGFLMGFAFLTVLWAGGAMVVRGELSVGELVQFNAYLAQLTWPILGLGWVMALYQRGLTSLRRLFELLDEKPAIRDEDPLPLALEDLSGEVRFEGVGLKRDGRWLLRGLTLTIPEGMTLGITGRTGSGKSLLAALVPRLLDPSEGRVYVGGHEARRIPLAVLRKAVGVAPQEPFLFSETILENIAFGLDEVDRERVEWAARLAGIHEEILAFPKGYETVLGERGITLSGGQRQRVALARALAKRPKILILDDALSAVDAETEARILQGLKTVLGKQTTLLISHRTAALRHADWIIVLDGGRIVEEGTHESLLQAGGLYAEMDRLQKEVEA

[2] = target: T2, TmrAB R136A^TmrA (Thermus thermophilus, UniProt Q72J05 1-600; Q72J04 1-578, R136A)
T2 construct: TmrA, Thermus thermophilus, the chain of TmrAB with the canonical Walker B motif; TmrB, Thermus thermophilus, the chain of TmrAB with the non-canonical Walker B motif
T2 sequence 1: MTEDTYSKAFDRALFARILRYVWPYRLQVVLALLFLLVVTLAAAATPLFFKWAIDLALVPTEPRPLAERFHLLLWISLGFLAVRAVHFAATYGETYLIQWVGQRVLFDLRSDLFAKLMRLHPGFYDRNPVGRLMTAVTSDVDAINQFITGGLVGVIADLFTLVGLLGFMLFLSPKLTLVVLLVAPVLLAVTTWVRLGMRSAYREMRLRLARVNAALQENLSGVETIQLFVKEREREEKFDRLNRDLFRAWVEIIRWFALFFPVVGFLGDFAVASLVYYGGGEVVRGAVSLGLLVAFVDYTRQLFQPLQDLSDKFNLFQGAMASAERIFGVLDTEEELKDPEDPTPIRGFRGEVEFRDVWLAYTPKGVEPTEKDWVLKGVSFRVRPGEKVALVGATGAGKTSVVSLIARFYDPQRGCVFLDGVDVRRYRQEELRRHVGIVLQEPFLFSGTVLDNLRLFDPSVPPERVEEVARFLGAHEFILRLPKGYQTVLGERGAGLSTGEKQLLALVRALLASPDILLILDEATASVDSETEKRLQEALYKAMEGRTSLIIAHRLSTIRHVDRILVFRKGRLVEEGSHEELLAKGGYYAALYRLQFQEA
T2 sequence 2: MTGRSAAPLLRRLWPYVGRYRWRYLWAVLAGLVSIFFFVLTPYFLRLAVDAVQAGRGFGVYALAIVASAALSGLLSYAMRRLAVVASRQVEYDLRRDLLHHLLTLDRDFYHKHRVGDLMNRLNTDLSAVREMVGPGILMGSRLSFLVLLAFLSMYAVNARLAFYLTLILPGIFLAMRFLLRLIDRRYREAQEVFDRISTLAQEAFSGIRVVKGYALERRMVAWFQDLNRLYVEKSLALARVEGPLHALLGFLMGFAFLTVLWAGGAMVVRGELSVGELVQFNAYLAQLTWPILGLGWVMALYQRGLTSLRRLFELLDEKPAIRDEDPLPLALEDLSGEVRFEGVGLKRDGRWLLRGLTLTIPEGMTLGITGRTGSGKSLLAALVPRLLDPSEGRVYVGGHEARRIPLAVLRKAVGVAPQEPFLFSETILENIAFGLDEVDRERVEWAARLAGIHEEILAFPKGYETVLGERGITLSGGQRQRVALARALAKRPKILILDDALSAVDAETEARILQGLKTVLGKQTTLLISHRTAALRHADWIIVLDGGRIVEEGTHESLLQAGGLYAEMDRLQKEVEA

[3] = target: T3, TmrAB D140A^TmrA (Thermus thermophilus, UniProt Q72J05 1-600; Q72J04 1-578, D140A)
T3 construct: TmrA, Thermus thermophilus, the chain of TmrAB with the canonical Walker B motif; TmrB, Thermus thermophilus, the chain of TmrAB with the non-canonical Walker B motif
T3 sequence 1: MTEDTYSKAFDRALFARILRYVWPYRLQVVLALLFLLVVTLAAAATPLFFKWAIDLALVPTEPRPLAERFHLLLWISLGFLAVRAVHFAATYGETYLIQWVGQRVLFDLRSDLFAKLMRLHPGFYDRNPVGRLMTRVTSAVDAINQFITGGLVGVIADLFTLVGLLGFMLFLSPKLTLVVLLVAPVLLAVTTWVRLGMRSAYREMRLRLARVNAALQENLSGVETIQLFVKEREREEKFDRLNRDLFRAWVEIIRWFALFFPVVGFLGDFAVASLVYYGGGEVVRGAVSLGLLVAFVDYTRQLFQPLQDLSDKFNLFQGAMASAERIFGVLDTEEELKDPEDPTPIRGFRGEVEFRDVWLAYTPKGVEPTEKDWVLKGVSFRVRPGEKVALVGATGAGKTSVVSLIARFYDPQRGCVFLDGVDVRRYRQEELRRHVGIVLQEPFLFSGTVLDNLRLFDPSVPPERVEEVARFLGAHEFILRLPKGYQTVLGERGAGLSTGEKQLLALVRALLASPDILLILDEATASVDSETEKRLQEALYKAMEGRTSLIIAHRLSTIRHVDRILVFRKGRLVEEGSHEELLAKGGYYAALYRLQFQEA
T3 sequence 2: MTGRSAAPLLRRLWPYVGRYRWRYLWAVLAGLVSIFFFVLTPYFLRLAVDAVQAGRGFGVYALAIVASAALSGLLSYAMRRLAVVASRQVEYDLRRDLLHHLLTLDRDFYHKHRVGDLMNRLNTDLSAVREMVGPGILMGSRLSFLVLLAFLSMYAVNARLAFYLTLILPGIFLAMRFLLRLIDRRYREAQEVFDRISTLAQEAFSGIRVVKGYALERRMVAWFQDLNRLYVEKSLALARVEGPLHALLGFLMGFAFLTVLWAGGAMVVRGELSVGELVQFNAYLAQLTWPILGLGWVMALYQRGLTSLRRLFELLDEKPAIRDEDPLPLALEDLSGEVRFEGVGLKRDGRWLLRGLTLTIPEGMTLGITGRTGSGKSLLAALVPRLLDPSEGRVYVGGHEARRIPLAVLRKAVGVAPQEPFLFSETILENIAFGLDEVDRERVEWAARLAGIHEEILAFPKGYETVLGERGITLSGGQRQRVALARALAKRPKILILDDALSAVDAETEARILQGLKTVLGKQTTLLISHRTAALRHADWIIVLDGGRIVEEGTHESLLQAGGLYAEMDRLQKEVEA

Measured: binding result

B1: fluorescent transport substrate peptide RRY(C^Fluorescein)KSTEL (peptide)
peptide: RRYC(fluorescein)KSTEL
notes: fluorescein-labelled transport substrate peptide of TmrAB; also called fluorescently-labeled peptide substrate; peptide substrate; source: bought: Genscript
binds: all assays above
